Publication PMC6373949, “Expression optimization, purification, and functional characterization of cholesterol oxidase from Chromobacterium sp. DS1” (PLoS ONE, 2019)

Substrate: CC(C)CCC[C@@H](C)[C@H]1CC[C@H]2[C@@H]3CC=C4C[C@@H](O)CC[C@]4(C)[C@H]3CC[C@]12C
Assay: purified protein
Type: biochemical, Chromobacterium sp. DS-1
Settings: 0.1 M potassium phosphate pH 7, 25°C, cholesterol 0-1 mM

B1: cholesterol oxidase from Chromobacterium sp. DS1 (ChO) (Chromobacterium sp. DS-1) (protein)
chain: GRLTCSQPNNFPAEIPLYKQSFKNWAGDIKVDDVWTCAPRSADEVVKVANWAKDNGYKVRARGMMHNWSPLTLAAGVSCPAVVLLDTTRYLTAMSIDASGPVAKVTAQAGITMEALLTGLEKAGLGVTAAPAPGDLTLGGVLAINGHGTAIPAKGERRLAGASYGSISNLVLSLTAVVYDKASGAYALRKFARNDPQIAPLLAHVGRSLIVEATLQAAPNQRLRCQSWFNIPYGEMFAAAGSGGRTFASYLDSAGRVEAIWFPFTSNPWLKVWTVTPNKPLFSRQTDKPFNYPFSDNLPDEVTDLANKILSLGDGKLTPAFGKAQFAAASAGLVATASWDLWGWSKNLLLYVKPTTLRVTANGYAVLTRRENVQRVLNEFVTFYQARVQAYQQQGRYPMNGPVEIRVTGLDDPSEAALSGGVAPALSAIRPRPDHPEWNVAVWLDILTLPGTPYANQFYREIEQWIEANFNGSYAAVRPEWSKGWGYTDQAAWADSAMLQTTIPNAFRAGQPAAANWDAAKAALAAYDPYRLFSSPLLDSLGL
notes: synthetic gene in pET24b(+) NdeI-BamHI; 6xHis tag (N-terminal), no tag removal told; E. coli Rosetta-gami2(DE3); native enzyme 58 kDa
B1 gave a Km of 31 µM.
